A value given as a limit tells only on which side of the number the result lay.

Assay [1] addresses HIV gp140 SF162 trimers (HIV (isolate SF162)). The assay can be described thus: SPR; HIV gp140 SF162 trimers amine-coupled on a CM5 chip (3250 RU); HCDR3-grafted Ubq fusions injected at 1 µM and 5 or 10 µM; HBS-EP+ (10 mM HEPES pH 7.4, 150 mM NaCl, 3 mM EDTA, 0.05% P20); 25°C; duplicate runs.
The next assay deals with T1, Strep-tagged Scn control (Homo sapiens, UniProt P80188).
T1 construct: siderocalin (Scn), human; also called siderocalin construct minus peptide; not shown: Strep-tag, C-terminal, kept
The experiment in a line: SPR; about 3000 RU of each Scn-peptide fusion or Strep-tagged Scn control amine-coupled on CM5 chips; 4E10 IgG injected at 300 nM in HBS-EP+ or HBS-EP+ at 500 mM NaCl; 25°C; responses normalised by specific activity. Conditions: both partners purified.

For the molecule “4E10 HCDR3-grafted ubiquitin fusion (designed binder)”, the Kd (commonly the concentration at which binding is half-saturated) in assay [1] was over 10 µM.

“b12 HCDR3-grafted ubiquitin fusion (designed binder)” showed a Kd in assay [1] of over 10 µM.

“2F5 HCDR3-grafted ubiquitin fusion (designed binder)” gave a Kd in assay [1] of over 10 µM.

B1: 4E10 IgG (antibody, V domains shown)
VH: QVQLVQSGAEVKRPGSSVTVSCKASGGSFSTYALSWVRQAPGRGLEWMGGVIPLLTITNYAPRFQGRITITADRSTSTAYLELNSLRPEDTAVYYCAREGTTGWGWLGKPIGAFAHWGQGTLVTVSS
VL: EIVLTQSPGTQSLSPGERATLSCRASQSVGNNKLAWYQQRPGQAPRLLIYGASSRPSGVADRFSGSGSGTDFTLTISRLEPEDFAVYYCQQYGQSLSTFGQGTKVEVK
notes: variable domain in PDB 4LLV (4E10 Fv, solved here), 2FX7 (4E10 Fab) and 3H3P; IgG, the bivalent form; also called bNAb 4E10; Polymun AB004; source: bought: Polymun Scientific; copies: 2 + 2
B1: the binding result with Strep-tagged Scn control is listed as “no binding (tested: 300 nM)”.

Values taken from publication PMC3784475 (PLoS Pathogens, 2013).
